This assay concerns the target Hepatitis B Surface Antigen (HBsAg) SpyCatcher nanoparticles (Hepatitis B virus). Description: covalent SpyTag/SpyCatcher conjugation shown by reduced SDS-PAGE.

The substance “RBD-SpyTag (SARS-CoV-2 receptor binding domain fused to the SpyTag peptide) (from UniProt P0DTC2) (domain or fragment)” gave a fraction unconjugated of less than 20%.

(Values after PMC8288147.)
